Target: Fn-TF:Factor VIIa complex (UniProt P08709)
Sequence (chain, as listed by the source, chain 1 of 2): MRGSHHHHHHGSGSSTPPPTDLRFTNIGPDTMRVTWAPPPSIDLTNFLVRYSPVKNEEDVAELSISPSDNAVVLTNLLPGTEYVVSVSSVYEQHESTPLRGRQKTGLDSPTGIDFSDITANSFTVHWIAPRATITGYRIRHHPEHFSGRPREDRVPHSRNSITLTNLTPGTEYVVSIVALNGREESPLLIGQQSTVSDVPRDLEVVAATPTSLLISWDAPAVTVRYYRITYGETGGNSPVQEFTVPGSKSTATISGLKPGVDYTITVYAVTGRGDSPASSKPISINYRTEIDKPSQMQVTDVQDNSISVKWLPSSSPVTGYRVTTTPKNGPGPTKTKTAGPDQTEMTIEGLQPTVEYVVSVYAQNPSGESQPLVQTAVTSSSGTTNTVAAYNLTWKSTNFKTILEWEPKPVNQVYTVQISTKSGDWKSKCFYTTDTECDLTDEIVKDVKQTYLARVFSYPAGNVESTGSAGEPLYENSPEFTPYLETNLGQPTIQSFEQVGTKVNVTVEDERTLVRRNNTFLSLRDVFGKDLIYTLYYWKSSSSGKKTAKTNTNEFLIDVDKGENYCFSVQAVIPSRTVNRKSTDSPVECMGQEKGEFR
Sequence (P08709 61-466, chain 2 of 2): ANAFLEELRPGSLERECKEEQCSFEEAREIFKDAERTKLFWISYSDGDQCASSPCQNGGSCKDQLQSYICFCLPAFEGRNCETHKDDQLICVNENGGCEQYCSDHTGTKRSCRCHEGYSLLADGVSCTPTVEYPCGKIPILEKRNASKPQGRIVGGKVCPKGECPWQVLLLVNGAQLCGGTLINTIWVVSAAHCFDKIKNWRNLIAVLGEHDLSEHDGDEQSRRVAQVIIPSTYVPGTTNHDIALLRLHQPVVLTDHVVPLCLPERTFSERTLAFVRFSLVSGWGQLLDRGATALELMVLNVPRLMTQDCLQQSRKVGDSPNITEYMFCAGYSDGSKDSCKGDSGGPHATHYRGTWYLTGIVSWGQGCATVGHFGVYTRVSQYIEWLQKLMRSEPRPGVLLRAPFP

Factor X, sequence (chain): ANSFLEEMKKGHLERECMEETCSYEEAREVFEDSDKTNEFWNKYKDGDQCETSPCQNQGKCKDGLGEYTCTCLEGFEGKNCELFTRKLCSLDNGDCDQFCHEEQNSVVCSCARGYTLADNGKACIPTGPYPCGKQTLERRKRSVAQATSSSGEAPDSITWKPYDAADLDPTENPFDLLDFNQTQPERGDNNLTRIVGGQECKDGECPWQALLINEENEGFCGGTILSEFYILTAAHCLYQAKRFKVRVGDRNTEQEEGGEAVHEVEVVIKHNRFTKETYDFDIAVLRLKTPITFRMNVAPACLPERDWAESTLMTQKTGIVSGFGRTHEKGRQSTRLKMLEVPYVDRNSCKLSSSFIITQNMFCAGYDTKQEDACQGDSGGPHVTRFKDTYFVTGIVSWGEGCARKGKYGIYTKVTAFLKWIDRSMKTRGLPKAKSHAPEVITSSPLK

## Factor X
  proteolytic activity toward Factor X (Factor Xa generation, Spectrozyme FXa): The increasing concentration of Fn-TF led to increased proteolytic activity similar to the curve obtained with TF1-218

Source: US20030194400
